Experimental data published in patent US20230125561A1.

Biological target: SARS-CoV-2 Spike S1 protein, B.1.1.7 (UK (Kent)) variant (SARS-CoV-2) (UniProt P0DTC2)
Test: ELISA
Conditions: designed binder

## Neumifil (HEX17: trimeric (hexavalent) form based on S. pneumoniae CBM40)
  EC50: 0.137 µg/mL
